Reference: patent US20260053904A1 (BIOATLA, published 2026)

Columns and labels:
rat EpCAM = molecular target: T1, rat EpCAM (rat, UniProt O55159 24-266, limits assumed); test: hybridoma screening, ELISA
T1 sequence (looked up): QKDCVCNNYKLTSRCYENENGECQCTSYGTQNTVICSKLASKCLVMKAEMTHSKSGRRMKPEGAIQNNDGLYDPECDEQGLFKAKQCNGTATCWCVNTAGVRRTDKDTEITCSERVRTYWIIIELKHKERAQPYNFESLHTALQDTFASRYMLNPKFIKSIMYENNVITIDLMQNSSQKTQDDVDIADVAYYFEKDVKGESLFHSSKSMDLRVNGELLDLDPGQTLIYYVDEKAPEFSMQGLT

mouse EpCAM = molecular target: T2, mouse EpCAM (mouse, UniProt Q99JW5 24-266); test: hybridoma screening, ELISA
T2 construct: extracellular domain; also called mouse EpCAM-ECD
T2 sequence (looked up): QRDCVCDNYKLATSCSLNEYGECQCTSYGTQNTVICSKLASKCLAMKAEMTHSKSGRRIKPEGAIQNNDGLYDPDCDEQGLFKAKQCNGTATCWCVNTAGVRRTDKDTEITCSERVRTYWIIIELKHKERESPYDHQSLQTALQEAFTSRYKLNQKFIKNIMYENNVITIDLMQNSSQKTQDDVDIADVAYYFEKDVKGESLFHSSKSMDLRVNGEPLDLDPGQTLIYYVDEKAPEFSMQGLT

B1: antibody of hybridoma clone 12C10F12 (antibody, V domains shown)
VH: QVQLQQSGAELAKPGASVKVSCKASGYTFTSYWMHWVKQRPGQGLEWIGYIRPSTGYTEYNQKFKDKATLTADKSSSTAYMQLSSLTFEDSAVYYCGRGDNWVGFANWGQGTLVTVSA
VL: QIVLTQSPAIMSASLGEEIALTCSASSSISYMHWYQQKSGTSPKLLIYSTSNLASGVPSRFSGSGSGTFYSLTISSVEAEDAADYFCHQWSTYHTFGSGTKLEIK
Rat EpCAM
  binding result: no binding
Mouse EpCAM
  binding result: no binding
